One substance from article doi:10.1101/600387 can be followed below.

The term stoichiometry N denotes a count of units in the complex or per binding partner.

For the experiment, the target named is Sulfolobus acidocaldarius R2-like ligand-binding oxidase (Sulfolobus acidocaldarius). The experiment in a line: crystal structure.

Consider “Sulfolobus acidocaldarius R2-like ligand-binding oxidase (enzyme)”, for which the stoichiometry N stood at 2.
